Measurements taken from patent publication US20250002594A1 (SHANGHAI EPIMAB BIOTHERAPEUTICS, published 2025).

T1: recombinant human CD122 (human, UniProt P14784 27-239, limits assumed)
T1 construct: also called IL-2Rβ
T1 sequence (looked up): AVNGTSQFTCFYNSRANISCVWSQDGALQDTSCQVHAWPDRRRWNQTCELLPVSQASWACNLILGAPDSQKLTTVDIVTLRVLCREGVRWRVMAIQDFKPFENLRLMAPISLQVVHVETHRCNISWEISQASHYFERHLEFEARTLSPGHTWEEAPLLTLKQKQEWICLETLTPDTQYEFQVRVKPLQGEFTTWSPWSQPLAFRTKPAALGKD

T2: recombinant human CD132 (human, UniProt P31785 23-262, limits assumed)
T2 construct: also called IL-2Rγ
T2 sequence (looked up): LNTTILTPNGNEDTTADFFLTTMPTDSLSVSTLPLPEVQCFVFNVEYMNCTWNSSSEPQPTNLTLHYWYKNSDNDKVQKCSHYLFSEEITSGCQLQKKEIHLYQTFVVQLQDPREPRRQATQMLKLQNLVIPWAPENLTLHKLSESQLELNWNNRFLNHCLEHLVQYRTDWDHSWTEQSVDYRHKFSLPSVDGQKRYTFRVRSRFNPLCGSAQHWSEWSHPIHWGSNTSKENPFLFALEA


Key:
recombinant human CD122 = target: T1, recombinant human CD122; test: GCI (WAVEsystem)
Procedure: (§1) Binding affinity and kinetics constants of humanized CD122/CD132 FIT-Ig were determined using a label-free biosensor on WAVEsystem (Creoptix AG, Switzerland) by grating-coupled interferometry (GCI). Briefly, a PCP WAVEchip (Creoptix AG) was pre-immobilized with goat anti-human IgG Fc antibody to a density of 3830 pg/mm² by amine coupling, and used to capture humanized CD122/CD132 FIT-Ig generated from Example 3.2.1 to a density of ˜90 pg/mm², then exposed to recombinant human/cyno CD122 or CD132 serially diluted (3× dilutions from 200 nM to […] for human CD122, human CD132 and cyno CD132, respectively; and from 1000 nM to 1.37 nM for cyno CD122) in 1X HBS-EP+ buffer (Cytiva, Cat No. BR100669) by injection at 60 μL/min for 250s to assess association, followed by 1200s dissociation. After each round of association and dissociation, WAVEchip surface was regenerated by subject to pH 1.5 Glycine-HCl buffer injection at 60 μL/min for 120s. Sensorgrams were recorded at 25° C., the data were analyzed on WAVEcontrol (Creoptix AG) and double referenced by subtracting the signals from blank injections and the reference channel. A Langmuir 1:1 model was used for data fitting.

recombinant human CD132 = target: T2, recombinant human CD132; test: GCI (WAVEsystem)
Procedure: as §1

| Binder | binding result (recombinant human CD122) | binding result (recombinant human CD132) |
| --- | --- | --- |
| huFIT2019-86b-17 (bispecific antibody, human IgG1, kappa, L234A L235A) chain 1: not shown chain 2: EVQLVQSGAEVKKPGASVKVSCKASGYTFTDYVISWVRQATGQGLEWMGEIYPGDAQTYYNEMFKGRVTMTRDTSISTAYMELSSLRSEDTAVYYCARGSYTYDNYAMDFWGQGTTVTVSSASTKGPSVFPLAPSSKSTSGGTAALGCLVKDYFPEPVTVSWNSGALTSGVHTFPAVLQSSGLYSLSSVVTVPSSSLGTQTYICNVNHKPSNTKVDKKVEPKSC chain 3: not shown | binds | binds |
| huFIT2019-86b-18 (bispecific antibody, human IgG1, kappa, L234A L235A) chain 1: not shown chain 2: EVQLVQSGAEVKKPGASVKVSCKASGYTFTDYVISWVRQATGQGLEWMGEIYPGDAQTYYNEMFKGRVTMTADTSISTAYMELSSLRSEDTAVYYCARGSYTYDNYAMDFWGQGTTVTVSSASTKGPSVFPLAPSSKSTSGGTAALGCLVKDYFPEPVTVSWNSGALTSGVHTFPAVLQSSGLYSLSSVVTVPSSSLGTQTYICNVNHKPSNTKVDKKVEPKSC chain 3: not shown | binds | binds |
| huFIT2019-86b-24 (bispecific antibody, human IgG1, kappa, L234A L235A) chain 1: not shown chain 2: EVQLVQSGAEVKKPGASVKVSCKASGYTFTDYVISWVRQATGQGLEWMGEIYPGDAQTYYNEMFKGRVTMTADTSISTAYMELSSLRSEDTAVYYCARGSYTYDNYAMDFWGQGTTVTVSSASTKGPSVFPLAPSSKSTSGGTAALGCLVKDYFPEPVTVSWNSGALTSGVHTFPAVLQSSGLYSLSSVVTVPSSSLGTQTYICNVNHKPSNTKVDKKVEPKSC chain 3: not shown | binds | binds |
| huFIT2019-86b-16 (bispecific antibody, human IgG1, kappa, L234A L235A) chain 1: not shown chain 2: EVQLVQSGAEVKKPGASVKVSCKASGYRFSDYVISWVKQATGQGLEWIGEIYPGDAQTYYNEMFKGRATLTADKSISTAYMELSSLRSEDTAVYFCARGSYTYDNYAMDFWGQGTTVTVSSASTKGPSVFPLAPSSKSTSGGTAALGCLVKDYFPEPVTVSWNSGALTSGVHTFPAVLQSSGLYSLSSVVTVPSSSLGTQTYICNVNHKPSNTKVDKKVEPKSC chain 3: not shown | binds | binds |
| huFIT2019-86b-23 (bispecific antibody, human IgG1, kappa, L234A L235A) chain 1: not shown chain 2: EVQLVQSGAEVKKPGASVKVSCKASGYTFTDYVISWVRQATGQGLEWMGEIYPGDAQTYYNEMFKGRVTMTRDTSISTAYMELSSLRSEDTAVYYCARGSYTYDNYAMDFWGQGTTVTVSSASTKGPSVFPLAPSSKSTSGGTAALGCLVKDYFPEPVTVSWNSGALTSGVHTFPAVLQSSGLYSLSSVVTVPSSSLGTQTYICNVNHKPSNTKVDKKVEPKSC chain 3: not shown | binds | binds |
| huFIT2019-86b-14 (bispecific antibody, human IgG1, kappa, L234A L235A) chain 1: not shown chain 2: EVQLVQSGAEVKKPGASVKVSCKASGYTFTDYVISWVRQATGQGLEWMGEIYPGDAQTYYNEMFKGRVTLTADTSISTAYMELSSLRSEDTAVYYCARGSYTYDNYAMDFWGQGTTVTVSSASTKGPSVFPLAPSSKSTSGGTAALGCLVKDYFPEPVTVSWNSGALTSGVHTFPAVLQSSGLYSLSSVVTVPSSSLGTQTYICNVNHKPSNTKVDKKVEPKSC chain 3: not shown | binds | binds |
| huFIT2019-86b-21 (bispecific antibody, human IgG1, kappa, L234A L235A) chain 1: not shown chain 2: EVQLVQSGAEVKKPGASVKVSCKASGYTFTDYVISWVKQATGQGLEWIGEIYPGDAQTYYNEMFKGRATLTADKSISTAYMELSSLRSEDTAVYYCARGSYTYDNYAMDFWGQGTTVTVSSASTKGPSVFPLAPSSKSTSGGTAALGCLVKDYFPEPVTVSWNSGALTSGVHTFPAVLQSSGLYSLSSVVTVPSSSLGTQTYICNVNHKPSNTKVDKKVEPKSC chain 3: not shown | binds | binds |
| huFIT2019-86b-25 (bispecific antibody, human IgG1, kappa, L234A L235A) chain 1: not shown chain 2: EVQLVQSGAEVKKPGASVKVSCKASGYRFSDYVISWVRQATGQGLEWMGEIYPGDAQTYYNEMFKGRVTMTADTSISTAYMELSSLRSEDTAVYYCARGSYTYDNYAMDFWGQGTTVTVSSASTKGPSVFPLAPSSKSTSGGTAALGCLVKDYFPEPVTVSWNSGALTSGVHTFPAVLQSSGLYSLSSVVTVPSSSLGTQTYICNVNHKPSNTKVDKKVEPKSC chain 3: not shown | binds | binds |
| huFIT2019-86b-22 (bispecific antibody, human IgG1, kappa, L234A L235A) chain 1: not shown chain 2: EVQLVQSGAEVKKPGASVKVSCKASGYRFSDYVISWVKQATGQGLEWIGEIYPGDAQTYYNEMFKGRATLTADKSISTAYMELSSLRSEDTAVYFCARGSYTYDNYAMDFWGQGTTVTVSSASTKGPSVFPLAPSSKSTSGGTAALGCLVKDYFPEPVTVSWNSGALTSGVHTFPAVLQSSGLYSLSSVVTVPSSSLGTQTYICNVNHKPSNTKVDKKVEPKSC chain 3: not shown | binds | binds |
| huFIT2019-86b-19 (bispecific antibody, human IgG1, kappa, L234A L235A) chain 1: not shown chain 2: EVQLVQSGAEVKKPGASVKVSCKASGYRFSDYVISWVRQATGQGLEWMGEIYPGDAQTYYNEMFKGRVTMTADTSISTAYMELSSLRSEDTAVYYCARGSYTYDNYAMDFWGQGTTVTVSSASTKGPSVFPLAPSSKSTSGGTAALGCLVKDYFPEPVTVSWNSGALTSGVHTFPAVLQSSGLYSLSSVVTVPSSSLGTQTYICNVNHKPSNTKVDKKVEPKSC chain 3: not shown | binds | binds |

Second part, the binder after the results:

| binding result (recombinant human CD122) | binding result (recombinant human CD132) | Binder |
| --- | --- | --- |
| binds | binds | huFIT2019-86b-13 (bispecific antibody, human IgG1, kappa, L234A L235A) chain 1: not shown chain 2: EVQLVQSGAEVKKPGASVKVSCKASGYRFSDYVISWVRQATGQGLEWMGEIYPGDAQTYYNEMFKGRVTMTADTSISTAYMELSSLRSEDTAVYYCARGSYTYDNYAMDFWGQGTTVTVSSASTKGPSVFPLAPSSKSTSGGTAALGCLVKDYFPEPVTVSWNSGALTSGVHTFPAVLQSSGLYSLSSVVTVPSSSLGTQTYICNVNHKPSNTKVDKKVEPKSC chain 3: not shown |
| binds | binds | huFIT2019-86b-20 (bispecific antibody, human IgG1, kappa, L234A L235A) chain 1: not shown chain 2: EVQLVQSGAEVKKPGASVKVSCKASGYTFTDYVISWVRQATGQGLEWMGEIYPGDAQTYYNEMFKGRVTLTADTSISTAYMELSSLRSEDTAVYYCARGSYTYDNYAMDFWGQGTTVTVSSASTKGPSVFPLAPSSKSTSGGTAALGCLVKDYFPEPVTVSWNSGALTSGVHTFPAVLQSSGLYSLSSVVTVPSSSLGTQTYICNVNHKPSNTKVDKKVEPKSC chain 3: not shown |
| binds | binds | huFIT2019-86b-12 (bispecific antibody, human IgG1, kappa, L234A L235A) chain 1: not shown chain 2: EVQLVQSGAEVKKPGASVKVSCKASGYTFTDYVISWVRQATGQGLEWMGEIYPGDAQTYYNEMFKGRVTMTADTSISTAYMELSSLRSEDTAVYYCARGSYTYDNYAMDFWGQGTTVTVSSASTKGPSVFPLAPSSKSTSGGTAALGCLVKDYFPEPVTVSWNSGALTSGVHTFPAVLQSSGLYSLSSVVTVPSSSLGTQTYICNVNHKPSNTKVDKKVEPKSC chain 3: not shown |
| binds | binds | huFIT2019-86b-11 (bispecific antibody, human IgG1, kappa, L234A L235A) chain 1: not shown chain 2: EVQLVQSGAEVKKPGASVKVSCKASGYTFTDYVISWVRQATGQGLEWMGEIYPGDAQTYYNEMFKGRVTMTRDTSISTAYMELSSLRSEDTAVYYCARGSYTYDNYAMDFWGQGTTVTVSSASTKGPSVFPLAPSSKSTSGGTAALGCLVKDYFPEPVTVSWNSGALTSGVHTFPAVLQSSGLYSLSSVVTVPSSSLGTQTYICNVNHKPSNTKVDKKVEPKSC chain 3: not shown |
| binds | binds | huFIT2019-86b-15 (bispecific antibody, human IgG1, kappa, L234A L235A) chain 1: not shown chain 2: EVQLVQSGAEVKKPGASVKVSCKASGYTFTDYVISWVKQATGQGLEWIGEIYPGDAQTYYNEMFKGRATLTADKSISTAYMELSSLRSEDTAVYYCARGSYTYDNYAMDFWGQGTTVTVSSASTKGPSVFPLAPSSKSTSGGTAALGCLVKDYFPEPVTVSWNSGALTSGVHTFPAVLQSSGLYSLSSVVTVPSSSLGTQTYICNVNHKPSNTKVDKKVEPKSC chain 3: not shown |
